Where a chain is given by its changes, count along the chain named.

This assay deals with T1, human TIM-3 coupled to Fc (human, UniProt Q8TDQ0 22-200, limits assumed).
T1 construct: Immobilised on the SPR sensor chip; not shown: Fc part
Kind of assay: SPR (ProteOn XPR36), human TIM-3-Fc immobilised, antibody in flow. On the procedure:
In order to select some leads amongst the ELISA-positive clones, TIM-3 association/dissociation profiles were analysed by Surface Plasmon Resonance (SPR). Briefly, human TIM-3 coupled to Fc was immobilised on sensor chip and the antibodies were then applied as a flow onto the chip. Association and dissociation rates were recorded using a ProteOn XPR36 bioanalyser (Biorad). Nine clones (1B9, 1H9, 1H10, 2C7, 2F4, 2G6, 1D9, 1F4, 2C8) were selected based on their rapid/strong association to TIM-3 and their slow dissociation from the protein (FIG. 5).

B1: anti-TIM-3 antibody clone 1H10 (antibody, V domains shown)
VH: QVQLQQWGAGLLKPSETLSLTCAVYGGSFSGYYWSWIRQPPGKGLEWIGEINHSGSTNYNPSLKSRVTISVDTSKNQFSLKLSSVTAADTAVYYCARGYVAGFDSWGQGTLVTVSS
VL: QSVLTQPPSVSAAPGQKVTISCSGSSSNIGNNYVSWYQQLPGTAPKLLIYGNNWRPSGIPDRFSGSKSGTSATLGITGLQTGDEADYYCDSWDYDYAAGVFGGGTKLTVL
With B1, the binding result is reported as “binds”.

B2: anti-TIM-3 antibody clone 1D9 (antibody, V domains shown)
VH: B1 VH with V100Y, F103D, S105Y
VL: B1 VL with D90E, S91A, Y94S, D95A, V100S
In the case of B2, the binding result is “binds”.

B3: anti-TIM-3 antibody clone 1F4 (antibody, V domains shown)
VH: B1 VH with F103Y, S105Y
VL: B1 VL with Y94A, D95A, Y96L, A97S
In the case of B3, the binding result was “binds”.

B4: anti-TIM-3 antibody clone 2G6 (antibody, V domains shown)
VH: B1 VH
VL: B1 VL with Y94S, D95S, Y96D, A97S, A98S
Consider B4, for which the binding result is “binds”.

B5: anti-TIM-3 antibody clone 2F4 (antibody, V domains shown)
VH: B1 VH with F103S, S105A
VL: B1 VL with D90E, A98S
For B5, the binding result is listed as “binds”.

B6: anti-TIM-3 antibody clone 2C7 (antibody, V domains shown)
VH: B1 VH with F103Y, S105Y
VL: B1 VL with Y94S, D95Y, Y96L
On to B6, for which the binding result is recorded as “binds”.

B7: anti-TIM-3 antibody clone 1H9 (antibody, V domains shown)
VH: B1 VH with S105D
VL: B1 VL with Y94S, D95A, Y96D, A98S
Turning to B7, the binding result is on record as “binds”.

B8: anti-TIM-3 antibody clone 1B9 (antibody, V domains shown)
VH: B1 VH with F103S, S105A
VL: B1 VL with D90E, S91A, D95Y, Y96V, V100Y
notes: also called 169
Take B8: the binding result is recorded as “binds”.
